Measured values as given in US20140308285A1 (Amgen, published 2014).
Where two headings read alike, the source gives them in different places.

T1: cynomolgus monkey CD3 (CD3 epsilon chain) on cynomolgus monkey T cells (cynomolgus monkey (Macaca fascicularis), UniProt Q95LI5 22-198)
T1 construct: The assay used isolated cynomolgus monkey T cells; also called cyno CD3
T1 chain: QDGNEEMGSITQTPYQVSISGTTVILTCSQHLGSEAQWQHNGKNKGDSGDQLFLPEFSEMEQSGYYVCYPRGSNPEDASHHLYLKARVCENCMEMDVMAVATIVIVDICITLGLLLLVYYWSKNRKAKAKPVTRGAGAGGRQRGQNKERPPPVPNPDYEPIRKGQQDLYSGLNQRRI


Legend:
[1] = biological target: T2, human CD3 (CD3 epsilon chain) on human T cells (human, UniProt P07766 22-207); assay: FACS on isolated human T cells, FITC anti-human light chain secondary antibody
T2 construct: The assay used isolated human T cells, which carry CD3 as part of the TCR-CD3 complex; also called CD3ε
Protocol: (§1) The heterodimeric bispecific antibodies described in Example 1 were produced in HEK 293 cells and were assayed by fluorescence activated cell sorting (FACS) for binding to T cells, which express CD3, and to a human ovarian cancer cell line, Ovcar-8, which expresses mesothelin. Briefly, the heterodimeric bispecific antibodies were incubated with about 50,000 Ovcar-8 cells or isolated human or cynomolgus monkey T cells at 4° C. for one hour. The cells were then washed and stained with a fluorescein isothiocyanate (FITC)-conjugated anti-human light chain secondary antibody and analyzed by flow cytometry. The relative binding was represented by the geometric mean of fluorescence intensity.

[2] = biological target: T1, cynomolgus monkey CD3 (CD3 epsilon …); assay: FACS on isolated cynomolgus monkey T cells, FITC anti-human light chain secondary antibody
Protocol: as §1
(§2) Another set of constructs was made by methods similar to those used above using the same pair of anti-MSLN VH and VL regions as used in most constructs described above and a different pair of anti-CD3 VH and VL regions than used in most of the constructs described above. […] These constructs were tested using the assays described above, as well as the cynomolgus monkey T cell-dependent cell cytolysis (called “cyno TDCC”) assay described below.

[3] = biological target: T2, human CD3 (CD3 epsilon chain) on human …; assay: FACS on isolated human T cells, FITC anti-human light chain secondary antibody; remark: listed apart in the source
Protocol: as §1, §2

[4] = biological target: T1, cynomolgus monkey CD3 (CD3 epsilon …); assay: cell-based or functional assay

T2 sequence (P07766 22-207 limits assumed): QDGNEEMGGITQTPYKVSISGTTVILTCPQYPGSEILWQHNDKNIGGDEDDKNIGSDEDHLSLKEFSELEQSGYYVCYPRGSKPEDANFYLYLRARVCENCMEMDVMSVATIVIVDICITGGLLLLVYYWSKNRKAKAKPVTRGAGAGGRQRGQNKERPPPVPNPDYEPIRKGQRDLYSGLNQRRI

| FACS binding (geometric mean) [1] | FACS binding (geometric mean) [2] | FACS binding (geometric mean) [3] | Cyno TDCC EC50 (pM), Ovcar-8 cells with cynomolgus monkey T cells [4] | Binder | Cyno TDCC Max killing (%), Ovcar-8 cells with cynomolgus monkey T cells [4] |
| --- | --- | --- | --- | --- | --- |
| 103 | – | – | – | P57216.9 (bispecific antibody) chain 1: QVQLQESGPGLVKPSQTLSLTCTVSGGSINNNNYYWTWIRQHPGKGLEWIGYIYYSGSTFYNPSLKSRVTISVDTSKTQFSLKLSSVTAADTAVYYCAREDTMTGLDVWGQGTLVTVSSASTKGPEVQLVESGGGLVKPGVSLRLSCAASGFTFSRYSMNWVRQAPGKGLEWVSSISSSGTYIKYADSVKGRFTISRDNAKNSLNLQMNSLRAEDTAVYYCARDRDRYPLDYWGQGTLVTVSSASTKGPSVFPLAPCSRSTSESTAALGCLVKDYFPEPVTVSWNSGALTSGVHTFPAVLQSSGLYSLSSVVTVPSSNFGTQTYTCNVDHKPSNTKVDKTVGGGGSAAAVPRDLEVVAATPTSLLISWDAPHHGVAYYRITYGETGGNSPVQEFTVPGSKSTATISGLKPGVDYTINVYAVLAYPRGYPLSKPISINYRTDYKDDDDKGSSHHHHHH chain 2: DIQMTQSPSSLSASVGDRVTITCRASQSINNYLNWYQQKPGKAPTLLIYAASSLQSGVPSRFSGSRSGTDFTLTISSLQPEDFAAYFCQQTYSNPTFGQGTKVEVKRTVAAPSSYELTQPPSVSVSPGQTARITCSGDALPKKYAYWYQQKSGQAPVLVIYEATKRPSGIPERFSGSSSGTMATLTLSGAQVEDEADYYCYSTDSTNYHWVFGGGTKLTVLGQPKAAPSVTLFPPSSEELQANKATLVCLISDFYPGAVTVAWKADSSPVKAGVETTTPSKQSNNKYAASSYLSLTPEQWKSHRSYSCQVTHEGSTVEKTVAPTECS | – |
| – | 121 | 16 | 3.2 pM | H69071.4 (bispecific antibody, also called H69071.2) chain 1: QVQLQESGPGLVKPSQTLSLTCTVSGGSINNNNYYWTWIRQHPGKGLEWIGYIYYSGSTFYNPSLKSRVTISVDTSKTQFSLKLSSVTAADTAVYYCAREDTMTGLDVWGQGTLVTVSSGGGGSGGGGSDIQMTQSPSSVSASVGDRVTITCRASQGISSWLAWYQQKPGKAPKLLIYAASSLQSGVPSRFSGSGSGAAFTLTISSLQPEDFATYFCQQANSFPLTFAGGTKVDIKRASTKGPSVFPLAPCSRSTSESTAALGCLVKDYFPEPVTVSWNSGALTSGVHTFPAVLQSSGLYSLSSVVTVPSSNFGTQTYTCNVDHKPSNTKVDKTVGGGGSAAAVPRDLEVVAATPTSLLISWDAPHHGVAYYRITYGETGGNSPVQEFTVPGSKSTATISGLKPGVDYTINVYAVLAYPRGYPLSKPISINYRTDYKDDDDKGSSHHHHHH chain 2: QVQLVESGGGVVQPGRSLRLSCAASGFTFSSYGMHWVRQAPGKGLEWVAVISYPGNTKYYADSVKGRFTISRDNSKNTLYLQMNSLRAEDTAVYFCARDQKEWRLIFDYWGQGTLVTVSSGGGGSGGGGSDIQMTQSPSSLSASVGDRVTITCRASQSINNYLNWYQQKPGKAPTLLIYAASSLQSGVPSRFSGSRSGTDFTLTISSLQPEDFAAYFCQQTYSNPTFGQGTKVEVKRTVAAPSVFIFPPSDEQLKSGTASVVCLLNNFYPREAKVQWKVDNALQSGNSQESVTEQDSKDSTYSLSSTLTLSKADYEKHKVYACEVTHQGLSSPVTKSFNRGEC | 88% |
| 290 | – | – | – | P69058.3 (bispecific antibody) chain 1: QVQLQESGPGLVKPSQTLSLTCTVSGGSINNNNYYWTWIRQHPGKGLEWIGYIYYSGSTFYNPSLKSRVTISVDTSKTQFSLKLSSVTAADTAVYYCAREDTMTGLDVWGQGTLVTVSSGGGGSGGGGSSSYELTQPPSVSVSPGQTARITCSGDALPKKYAYWYQQKSGQAPVLVIYEATKRPSGIPERFSGSSSGTMATLTLSGAQVEDEADYYCYSTDSTNYHWVFGGGTKLTVLGASTKGPSVFPLAPCSRSTSESTAALGCLVKDYFPEPVTVSWNSGALTSGVHTFPAVLQSSGLYSLSSVVTVPSSNFGTQTYTCNVDHKPSNTKVDKTVGGGGSAAAVPRDLEVVAATPTSLLISWDAPHHGVAYYRITYGETGGNSPVQEFTVPGSKSTATISGLKPGVDYTINVYAVLAYPRGYPLSKPISINYRTDYKDDDDKGSSHHHHHH chain 2: EVQLVESGGGLVKPGVSLRLSCAASGFTFSRYGMNWVRQAPGKGLEWVSSISSSGTYIKYADSVKGRFTISRDNAKNSLNLQMNSLRAEDTAVYYCARDRDRYPLDYWGQGTLVTVSSGGGGSGGGGSDIQMTQSPSSLSASVGDRVTITCRASQSINNYLNWYQQKPGKAPTLLIYAASSLQSGVPSRFSGSRSGTDFTLTISSLQPEDFAAYFCQQTYSNPTFGQGTKVEVKRTVAAPSVFIFPPSDEQLKSGTASVVCLLNNFYPREAKVQWKVDNALQSGNSQESVTEQDSKDSTYSLSSTLTLSKADYEKHKVYACEVTHQGLSSPVTKSFNRGEC | – |
| – | 276 | 66 | 8.1 pM | H71365.2 (bispecific antibody, also called H71364.2) chain 1: QVQLVESGGGVVQPGRSLRLSCAASGFTFSSYGMHWVRQAPGKGLEWVAVISYPGNTKYYADSVKGRFTISRDNSKNTLYLQMNSLRAEDTAVYFCARDQKEWRLIFDYWGQGTLVTVSSGGGGSGGGGSQVQLQESGPGLVKPSQTLSLTCTVSGGSINNNNYYWTWIRQHPGKGLEWIGYIYYSGSTFYNPSLKSRVTISVDTSKTQFSLKLSSVTAADTAVYYCAREDTMTGLDVWGQGTTVTVSSASTKGPSVFPLAPCSRSTSESTAALGCLVKDYFPEPVTVSWNSGALTSGVHTFPAVLQSSGLYSLSSVVTVPSSNFGTQTYTCNVDHKPSNTKVDKTVGGGGSAAAVPRDLEVVAATPTSLLISWDAPHHGVAYYRITYGETGGNSPVQEFTVPGSKSTATISGLKPGVDYTINVYAVLAYPRGYPLSKPISINYRTDYKDDDDKGSSHHHHHH chain 2: DIQMTQSPSSVSASVGDRVTITCRASQGISSWLAWYQQKPGKAPKLLIYAASSLQSGVPSRFSGSGSGAAFTLTISSLQPEDFATYFCQQANSFPLTFAGGTKVDIKRGGGGSGGGGSDIQMTQSPSSLSASVGDRVTITCRASQSINNYLNWYQQKPGKAPTLLIYAASSLQSGVPSRFSGSRSGTDFTLTISSLQPEDFAAYFCQQTYSNPTFGQGTKVEVKRTVAAPSVFIFPPSDEQLKSGTASVVCLLNNFYPREAKVQWKVDNALQSGNSQESVTEQDSKDSTYSLSSTLTLSKADYEKHKVYACEVTHQGLSSPVTKSFNRGEC | 86% |
| – | 110 | 11 | 18.8 pM | H69072.4 (bispecific antibody) chain 1: DIQMTQSPSSVSASVGDRVTITCRASQGISSWLAWYQQKPGKAPKLLIYAASSLQSGVPSRFSGSGSGAAFTLTISSLQPEDFATYFCQQANSFPLTFAGGTKVDIKRGGGGSGGGGSQVQLQESGPGLVKPSQTLSLTCTVSGGSINNNNYYWTWIRQHPGKGLEWIGYIYYSGSTFYNPSLKSRVTISVDTSKTQFSLKLSSVTAADTAVYYCAREDTMTGLDVWGQGTTVTVSSASTKGPSVFPLAPCSRSTSESTAALGCLVKDYFPEPVTVSWNSGALTSGVHTFPAVLQSSGLYSLSSVVTVPSSNFGTQTYTCNVDHKPSNTKVDKTVGGGGSAAAVPRDLEVVAATPTSLLISWDAPHHGVAYYRITYGETGGNSPVQEFTVPGSKSTATISGLKPGVDYTINVYAVLAYPRGYPLSKPISINYRTDYKDDDDKGSSHHHHHH chain 2: DIQMTQSPSSLSASVGDRVTITCRASQSINNYLNWYQQKPGKAPTLLIYAASSLQSGVPSRFSGSRSGTDFTLTISSLQPEDFAAYFCQQTYSNPTFGQGTKVEVKGGGGSGGGGSQVQLVESGGGVVQPGRSLRLSCAASGFTFSSYGMHWVRQAPGKGLEWVAVISYPGNTKYYADSVKGRFTISRDNSKNTLYLQMNSLRAEDTAVYFCARDQKEWRLIFDYWGQGTLVTVSSRTVAAPSVFIFPPSDEQLKSGTASVVCLLNNFYPREAKVQWKVDNALQSGNSQESVTEQDSKDSTYSLSSTLTLSKADYEKHKVYACEVTHQGLSSPVTKSFNRGEC | 91% |
| – | 127 | 9 | 3 pM | H69070.4 (bispecific antibody) chain 1: QVQLVESGGGVVQPGRSLRLSCAASGFTFSSYGMHWVRQAPGKGLEWVAVISYPGNTKYYADSVKGRFTISRDNSKNTLYLQMNSLRAEDTAVYFCARDQKEWRLIFDYWGQGTLVTVSSASTKGPQVQLQESGPGLVKPSETLSLTCTVSGGSIISHYWSWIRQPPGKGLEWIGYIYYSGSTNYNPSLKSRVTISVDTSKNQFSLKLTSVTAADTAVYYCARDGWSAFDYWGQGTLVTVSSASTKGPSVFPLAPCSRSTSESTAALGCLVKDYFPEPVTVSWNSGALTSGVHTFPAVLQSSGLYSLSSVVTVPSSNFGTQTYTCNVDHKPSNTKVDKTVGGGGSAAAVPRDLEVVAATPTSLLISWDAPHHGVAYYRITYGETGGNSPVQEFTVPGSKSTATISGLKPGVDYTINVYAVLAYPRGYPLSKPISINYRTDYKDDDDKGSSHHHHHH chain 2: DIQMTQSPSSVSASVGDRVTITCRASQGISSWLAWYQQKPGKAPKLLIYAASSLQSGVPSRFSGSGSGAAFTLTISSLQPEDFATYFCQQANSFPLTFAGGTKVDIKRTVAAPDIQMTQSPSSLSASVGDRVTITCRASQGIRNALGWYQQKPGKAPKRLIYAASSLQSGVPSRFSGSGSGTEFTLTISSLQPEDFATYYCLQHNSYPRTFGQGTKVEIRRTVAAPSVFIFPPSDEQLKSGTASVVCLLNNFYPREAKVQWKVDNALQSGNSQESVTEQDSKDSTYSLSSTLTLSKADYEKHKVYACEVTHQGLSSPVTKSFNRGEC | 88% |
